Experimental data from patent US7589167B2, “ZA loops of bromodomains” (J. David Gladstone Institutes, priority 2000, dated 2009).
Entries after “also recorded” stand apart in the source; their conditions may differ. Where two headings read alike, the source gives them in different places. Where no end group is shown, it is not given here.

T1: P/CAF bromodomain (Homo sapiens, UniProt Q92831, P804A/P805A)
T1 construct: poly-His (N, cleaved yes); made in house; host or cells: Escherichia coli BL21(DE3)
T1 sequence (Q92831 719-832 P804A/P805A): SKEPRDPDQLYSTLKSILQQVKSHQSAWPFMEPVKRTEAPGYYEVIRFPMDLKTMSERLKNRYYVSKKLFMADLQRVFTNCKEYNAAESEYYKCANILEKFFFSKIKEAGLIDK


How the values were obtained:
P/CAF bromodomain = molecular target: T1, P/CAF bromodomain; assay: NMR ligand titration (2D 15N-/13C-HSQC chemical shift changes) of the P/CAF bromodomain; type: binding; conditions: for binding to the P/CAF bromodomain (qualitative): NMR titration, chemical shift changes
Method: (§1) NMR spectroscopy: All NMR spectra were acquired at 30° C. on a Bruker DRX600 or DRX500 spectrometer. The backbone assignments of the ^1H, ^13C, and ^15N resonances were achieved using deuterium-decoupled triple-resonance experiments of HNCACB and HN(CO)CACB [Yamazaki et al., J. Am. Chem. Soc. 116:11655-11666 (1994)] recorded using the uniformly ^15N/^13C-labeled and fractionally deuterated protein. The side-chain atoms were assigned from 3D HCCH-TOCSY [Clore and Gronenbom, Meth. Enzymol. 239:249-363 (1994)] and (H)C(CO)NH-TOCSY [Logan et al., J. Biolmol. NMR 3:225-231 (1993)] data collected on the uniformly ^15N/^13C-labeled protein. Stereospecific assignments of methyl groups of the Val and Leu residues were obtained using a fractionally ^13C-labeled sample [Neri et al., Biochemistry 28:7510-7516 (1989)]. The NOE-derived distance restraints were obtained from ^15N- or ^13C-edited 3D NOESY spectra. φ-angle restraints were determined based on the ^3JHn,Hα coupling constants measured in a 3D H spectrum [Clore and Gronenbom, Meth. Enzymol. 239:249-363 (1994)]. Slowly exchanging amide protons were identified from a series of 2D ^15N-HSQC spectra recorded after the H2O buffer was changed to a ^2H2O buffer. The intermolecular NOEs used in defining the structure of the bromodomain/Ac-histamine complex were detected in ^13C-edited (F1), ^13C/^15N-filtered (F3) 3D NOESY spectrum [Clore and Gronenbom, Meth. Enzymol. 239:249-363 (1994)]. All NMR spectra were processed with the NMRPipe/NMRDraw programs and analyzed using NMRView [Johnson and Blevins, J. Biomol., NMR 4:603-614 (1994)].
(§2) Ligand titration: Ligand titration experiments were performed by recording a series of 2D ^15N—- and ^13C-HSQC spectra on the uniformly ^15N-, and ^15N/^13C-labelled bromodomain (˜0.3 mM), respectively, in the presence of different amounts of ligand concentration ranging from 0 to approximately 2.0 mM. The protein sample and the stock solutions of the ligands were all prepared in the same aqueous buffer containing 100 mM phosphate and 5 mM perdeuterated DTT at pH 6.5.
as §1, with “the uniformly ^15N/^13C-labelled and fractionally” for “the uniformly ^15N/^13C-labeled and fractionally”, “of the valine and leucine” for “of the Val and Leu”, “valine and leucine residues were” for “Val and Leu residues were”, “3D NOESY spectra [Clore and Gronenbom, Meth. Enzymol. 239:249-363 (1994)]. φ-angle restraints” for “3D NOESY spectra. φ-angle restraints”, “on the ^3JHN,H coupling constants” for “on the ^3JHn,Hα coupling constants”, “a 3D HNHA spectrum [Clore” for “a 3D H spectrum [Clore”
Ligand titration experiments were performed by recording a series of 2D ^15N-HSQC spectra on the uniformly ^15N-labelled bromodomain (˜0.3 mM), respectively, in the presence of different amounts of ligand concentration ranging from 0 to ˜2.0 mM.

[1] = system: lysine-acetylated H4 peptide; assay: NMR titration of wild-type and mutant P/CAF bromodomain proteins with the H4 AcK peptide; type: binding; conditions: for binding of bromodomain mutants to the lysine-acetylated H4 peptide (qualitative): NMR titration; for Kd: read-out: H4 AcK-Peptide Binding KD
Method: (§3) Site-directed mutagenesis: Mutant proteins were prepared using the QuickChange site-directed mutagenesis kit (Stratagene). The presence of appropriate mutations was confirmed by DNA sequencing.
as §2

[2] = system: biotinylated and lysine-acetylated Tat peptide; assay: Mutational analysis: binding of P/CAF bromodomain mutant proteins to immobilized lysine-acetylated Tat peptide; design: species or system HIV-1; conditions: peptide immobilized onto streptavidin agarose
Method: Site directed mutagenesis. Site directed mutagenesis was performed on selected residues of P/CAF Bromodomain using quick-change kit (Stratagene). The mutants were confirmed by sequencing and proteins were expressed and purified as above.
Peptide binding assay. Equal amount (10 μM) of GST, GST-P/CAF bromodomain and its mutant proteins, as well as various GST-fusion bromodomains from CBP and TIF1β were incubated for at least two hours at room temperature with the N-terminal biotinylated and lysine-acetylated Tat peptide (50 μM) in a 50 mM Tris buffer of pH 7.5, containing 50 mM NaCl, 0.1% BSA and 1 mMDTT. Streptavidin agarose (10 μL) was added to mixture and the beads were washed twice in the Tris buffer with 500 mM NaCl and 0.1% NP-40. Proteins were eluted from the argarose beads in SDS buffer and separated on a 14% SDS-PAGE. The resolved proteins were transferred onto nitrocellulose membrane (Pharmacia), and the membrane was blocked overnight with 5% non-fat milk in washing buffer of 20 mM Tris, pH 7.5, plus 150 mM NaCl and 0.1% Tween-20 at 4° C. Western blotting was performed with anti-GST antibody (Sigma) and goat anti-rabbit IgG conjugated with horseradish-peroxidase (Promega) and developed by chemiluminescence. Peptide competition experiments were performed by incubating various non-biotinylated and mutant Tat peptide with the P/CAF bromodomain and the biotinylated and wild type Tat peptide. The molar ratio of the wild type and mutant Tat peptides in the mixture were kept at 1:2. The binding results were analyses by using the procedure as described above.
To identify the amino acid residues of the P/CAF bromodomain that are important for complex formation, mutant proteins were tested for binding to the biotinylated and lysine-acetylated Tat peptide that is immobilized onto streptavidin agarose (FIG. 10A). […] The results from the mutational analysis agree with the observations of intermolecular NOEs in the NMR spectra.

[3] = Structural integrity of P/CAF bromodomain mutants by 15N-HSQC spectra; type: physicochemical; design: key: ++++: as stable as the wild-type; +++: mildly destabilized; ++: moderately destabilized; −: completely unfolded; conditions: relative to wild-type
Method: as §3

[4] = estimated from amide chemical shift changes in 15N-HSQC vs ligand concentration

Row | Molecule | binding to the P/CAF bromodomain (qualitative) (P/CAF bromodomain) | binding of bromodomain mutants to the lysine-acetylated H4 peptide (qualitative) [1] | Structural Integrity [3] | Kd [1, 4] [µM] | also measured
1 | CC(=O)NCCc1cnc[nH]1 [acetyl-histamine] | chemical shift perturbations with similar concentration dependence and does | – | – | – | –
2 | CC(=O)N[C@@H](Cc1c[nH]cn1)C(=O)O [acetyl-histidine] | did not bind; also recorded: does not to bind | – | – | – | –
3 | CC(=O)NCCCC[C@H](NC(=O)CNC(=O)CNC(=O)[C@H](CCCCN)NC(=O)CNC(=O)[C@H](CCCNC(=N)N)NC(=O)CNC(=O)[C@@H](N)CO)C(=O)NCC(=O)N[C@@H](CC(C)C)C(=O)NCC(=O)N[C@@H](CCCCN)C(=O)O [SGRGKGG-AcK-GLGK] | – | – | – | – | Kd (P/CAF bromodomain; estimated from NMR titration, 15N-HSQC, pH 6.5, 30° C., read-out: dissociation constant (KD)): 346 ± 54 µM
4 | ISYGR-AcK-KRRQRR | bind to the P/CAF bromodomain | – | – | – | –
5 | ARKSTGG-AcK-APRKQL (ARKSTGGXAPRKQL; acetyl-lysine; synthetic bromodomain peptide) | bind to the P/CAF bromodomain | – | – | – | –
6 | SYGRK(Ac)KRRQRC [Tat AcK50 peptide, SYGR-AcK-KRRQRC] | – | – | – | – | Kd (P/CAF bromodomain): ~20 µM
7 | QSTSRHK-AcK-LMFKTE (QSTSRHKXLMFKTE; acetyl-lysine; synthetic bromodomain peptide) | bind to the P/CAF bromodomain | – | – | – | –
8 | CC(=O)N[C@@H](CCCCN)C(=O)O [acetyl-lysine] | did not bind; also recorded: does not appear to bind | – | – | – | –
9 | Tyr809Ala: P/CAF bromodomain point mutant, Tyr809 to Ala (protein) SKEPRDPDQLYSTLKSILQQVKSHQSAWPFMEPVKRTEAPGYYEVIRFPMDLKTMSERLKNRYYVSKKLFMADLQRVFTNCKEYNAAESEAYKCANILEKFFFSKIKEAGLIDK | – | completely abrogated | ++++ | – | H4 AcK-Peptide Binding KD (μM) [1, 4]: No Binding ^c; binding of alanine point mutants to the Tat AcK50 peptide (qualitative) [2]: nearly complete loss or significantly reduced binding
10 | Wild-Type: wild-type bromodomain of P/CAF (residues 719-832 of SEQ ID NO:2) (protein, listed as Homo sapiens) SKEPRDPDQLYSTLKSILQQVKSHQSAWPFMEPVKRTEAPGYYEVIRFPMDLKTMSERLKNRYYVSKKLFMADLQRVFTNCKEYNAAESEYYKCANILEKFFFSKIKEAGLIDK | – | – | ++++ | 346 ± 54 | –
11 | Val752Ala (protein) SKEPRDPDQLYSTLKSILQQVKSHQSAWPFMEPAKRTEAPGYYEVIRFPMDLKTMSERLKNRYYVSKKLFMADLQRVFTNCKEYNAAESEYYKCANILEKFFFSKIKEAGLIDK | – | significantly reduced ligand binding affinity | ++ | > 10000 | binding of alanine point mutants to the Tat AcK50 peptide (qualitative) [2]: nearly complete loss or significantly reduced binding
12 | Tyr760Ala: P/CAF bromodomain point mutant, Tyr760 to Ala (protein) SKEPRDPDQLYSTLKSILQQVKSHQSAWPFMEPVKRTEAPGAYEVIRFPMDLKTMSERLKNRYYVSKKLFMADLQRVFTNCKEYNAAESEYYKCANILEKFFFSKIKEAGLIDK | – | significantly reduced ligand binding affinity | +++ | > 10000 | –
13 | Tyr802Ala: P/CAF bromodomain point mutant, Tyr802 to Ala (protein) SKEPRDPDQLYSTLKSILQQVKSHQSAWPFMEPVKRTEAPGYYEVIRFPMDLKTMSERLKNRYYVSKKLFMADLQRVFTNCKEANAAESEYYKCANILEKFFFSKIKEAGLIDK | – | significantly reduced ligand binding affinity | +++ | > 10000 | binding of alanine point mutants to the Tat AcK50 peptide (qualitative) [2]: nearly complete loss or significantly reduced binding
